Assay results published in US20260204353A1 (published 2026).

Target: T1, - (UniProt Q15116 25-167)
Experiment: SPR (Biacore T200)

T1 sequence (Q15116 25-167): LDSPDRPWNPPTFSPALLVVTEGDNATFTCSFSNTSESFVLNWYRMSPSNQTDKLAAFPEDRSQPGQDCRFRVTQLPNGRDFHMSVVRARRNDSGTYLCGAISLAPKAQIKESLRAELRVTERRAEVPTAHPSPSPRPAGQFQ

| Binder | Kd |
| --- | --- |
| Variant 4 (scFv, V domains shown) VH: EVQLVESGGGLVQPGGSLRLSCAASGFTFSSYTMSWVRQAPGKGLEWVSYISHGGGDTYYPDSVKGRFTISRDNSKNTLYLQMNSLRAEDTAVYYCARHSGYERGYYYVMDYWGQGTLVTVSS VL: DIVMTQSPDSLAVSLGERATINCKSSESVDYYGFSFLNWFQQKPGQPPKLLIYAASNRESGVPDRFSGSGSGTDFTLTISSLQAEDVAVYYCQQSKEVPWTFGQGTKLEIKR | 3.6 nM |
| Variant 3 (scFv, V domains shown) VH: EVQLVESGGGLVQPGGSLRLSCAASGFTFSSYTMSWVRQAPGKGLEWVSYISHGGGDTYYADSVKGRFTISRDNSKNTLYLQMNSLRAEDTAVYYCARHSGYERGYYYVMDYWGQGTLVTVSS VL: DIQLTQSPDSLSVSLGERATINCKASESVDYYGFSFLNWFQQKPGQPPKLLIYAASNRQSGVPDRFSGSGSGTDFTLTISSLQAEDVAVYFCQQSKEVPWTFGQGTKLEIKR | 5.6 nM |
| Variant 6 (scFv, V domains shown) VH: EVQLVESGGGLVQPGGSLRLSCAASGFTFSSYTMSWVRQAPGKGLEWVSYISHGGGDTYYPDSVKGRFTISRDNSKNTLYLQMNSLRAEDTAVYYCARHSGYERGYYYVMDYWGQGTLVTVSS VL: DIQLTQSPDSLSVSLGERATINCKASESVDYYGFSFLNWFQQKPGQPPKLLIYAASNRQSGVPDRFSGSGSGTDFTLTISSLQAEDVAVYFCQQSKEVPWTFGQGTKLEIKR | 5.8 nM |
| Variant 1 (scFv, V domains shown) VH: EVQLVESGGGLVQPGGSLRLSCAASGFTFSSYTMSWVRQAPGKGLEWVSYISHGGGDTYYADSVKGRFTISRDNSKNTLYLQMNSLRAEDTAVYYCARHSGYERGYYYVMDYWGQGTLVTVSS VL: DIVMTQSPDSLAVSLGERATINCKSSESVDYYGFSFLNWFQQKPGQPPKLLIYAASNRESGVPDRFSGSGSGTDFTLTISSLQAEDVAVYYCQQSKEVPWTFGQGTKLEIKR | 5.8 nM |

Next, values leading:

| Kd | Binder |
| --- | --- |
| 2.6 nM | Variant 8 (scFv, V domains shown) VH: EVKLLESGGGLVQPGGSLRLSCAASGFTFSSYTMSWVRQAPGKGLEWVSYISHGGGDTYYPDSVKGRFTISRDNSKNTLYLQMNSLRAEDTAVYYCARHSGYERGYYYVMDYWGKGTTVTVSS VL: DIVMTQSPDSLAVSLGERATINCKASESVDYYGFSFLNWFQQKPGQPPKLLIYAASNRESGVPDRFSGSGSGTDFTLTISSLQAEDVAVYYCQQSKEVPWTFGQGTKLEIK |
| 2.3 nM | Variant 5 (scFv, V domains shown) VH: EVQLVESGGGLVQPGGSLRLSCAASGFTFSSYTMSWVRQAPGKGLEWVSYISHGGGDTYYPDSVKGRFTISRDNSKNTLYLQMNSLRAEDTAVYYCARHSGYERGYYYVMDYWGQGTLVTVSS VL: DIVMTQSPDSLAVSLGERATINCKASESVDYYGFSFLNWFQQKPGQPPKLLIYAASNRESGVPDRFSGSGSGTDFTLTISSLQAEDVAVYYCQQSKEVPWTFGQGTKLEIKR |
| 0.67 nM | Variant 7 (scFv, V domains shown) VH: EVKLLESGGGLVQPGGSLRLSCAASGFTFSSYTMSWVRQAPGKGLEWVSYISHGGGDTYYPDSVKGRFTISRDNSKNTLYLQMNSLRAEDTAVYYCARHSGYERGYYYVMDYWGKGTTVTVSS VL: DIVMTQSPDSLAVSLGERATINCKSSESVDYYGFSFLNWFQQKPGQPPKLLIYAASNRESGVPDRFSGSGSGTDFTLTISSLQAEDVAVYYCQQSKEVPWTFGQGTKLEIK |

Target: T1, -
Experiment: SPR (Biacore T200); range printed

| Kd | Binder |
| --- | --- |
| 2 nM | Variant 2 (scFv, V domains shown) VH: EVQLVESGGGLVQPGGSLRLSCAASGFTFSSYTMSWVRQAPGKGLEWVSYISHGGGDTYYADSVKGRFTISRDNSKNTLYLQMNSLRAEDTAVYYCARHSGYERGYYYVMDYWGQGTLVTVSS VL: DIVMTQSPDSLAVSLGERATINCKASESVDYYGFSFLNWFQQKPGQPPKLLIYAASNRESGVPDRFSGSGSGTDFTLTISSLQAEDVAVYYCQQSKEVPWTFGQGTKLEIKR |
